Experimental findings from patent US20070134248A1 (GENITOPE, published 2007) are described below.

Assay [1] concerns the target T1, 628.
T1 construct: immunogen of fusions 20 and 21; also called PIN628; PIN628 fully human Id protein (HV3-7 / KV4-1)
In words: ELISA. From the text: (§1) Before specificity screening, all of the clonal immunogen-positive hybridoma supernatants were re-screened on the immunogen, a non-family member Id protein, and KLH, if animals were immunized with Id protein that has been conjugated KLH. As described above, this screen identifies HC-specific clones but not mAbs against the light chain constant region. Clones identified positive to the immunogen and KLH were […]. Those found positive to the immunogen but not to the non-family member Id protein or KLH were tittered on the immunogen. In addition to normalizing for different binding affinities and concentrations, each hybridoma supernatant was titered on the fully human form of the Id protein used as the immunogen(s) for the V regions. The titer or dilution resulting in an ELISA absorbance of 2.5 to 3 OD after 30 min. incubation time was then used. Hybridoma specificity was determined by screening against available Id proteins expressing the same HV and KV or LV as well as different HV, KV and LV. The final ELISA results are expressed as follows: 0 (<0.5 OD),1 (0.5-1.0 OD), or 4 (1-4 OD). Positive hybridoma supernatants are categorized according to specificity: anti-Id, anti-constant region (HC, KC or LC), or V region (HV, KV, LV family or family member).
(§2) In general, the fully human Id protein or proteins containing the immunogen V regions were coated onto 96-well ELISA plates at 2.5-5 ug/mL in carbonate buffer pH 9.6 and incubated at 4° C. for up to 14 days. On the day of the ELISA, plates were brought to RT and blocked with Tris-Tween-20, pH 7.6 for 15-60 min. at RT. Following a NaCl and Triton X-100 wash, diluted hybridoma cell culture supernatants were incubated overnight at 4° C. Hybridoma supernatant dilutions ranged from 1:2 to 1:25 and were prepared in PBS with 5% BSA. Plates were washed and incubated with HRP-conjugated goat anti-mouse IgG-specific detecting antibody. A chromogenic substrate (TMB) was used to measure the amount of mouse antibody bound to each well. The reaction was stopped at or before 30 minutes with IN H2SO4 and plates were read immediately. Absorbency readings at 450 nm ranging between 0-4 OD and using Molecular Devices plate reader and SOFTMAX PRO software.
Background: An ELISA detects its analyte on a solid surface through an enzyme-linked reagent.

The target of assay [2] is T2, 913.
T2 construct: also called PIN913; PIN913 fully human Id protein (HV4-59 / KV4-1)
T2 sequence (heavy, as listed by the source): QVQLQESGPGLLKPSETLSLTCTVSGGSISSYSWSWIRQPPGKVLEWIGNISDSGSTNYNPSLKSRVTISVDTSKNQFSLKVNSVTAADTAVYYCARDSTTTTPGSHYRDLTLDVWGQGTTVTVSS
Kind of assay: ELISA.
Excerpt: as §1, §2

Assay [3] has as its target T3, PIN185 fully human Id protein (human).
T3 construct: patient idiotype immunoglobulin used as control antigen
Kind of assay: ELISA.
Excerpt: as §1, §2

Assay [4] deals with T4, 116.
T4 construct: immunogen of fusions 15, 16 and 18; coated in its fully human form; also called PIN116; PIN116 fully human Id protein (HV1-46 / LV2-8)
T4 sequence (VH, as listed by the source, chain 1 of 2): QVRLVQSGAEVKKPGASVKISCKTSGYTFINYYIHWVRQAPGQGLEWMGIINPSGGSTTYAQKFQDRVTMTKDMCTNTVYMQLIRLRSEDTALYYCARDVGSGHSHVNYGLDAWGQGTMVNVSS
T4 sequence (V domain, as listed by the source, chain 2 of 2): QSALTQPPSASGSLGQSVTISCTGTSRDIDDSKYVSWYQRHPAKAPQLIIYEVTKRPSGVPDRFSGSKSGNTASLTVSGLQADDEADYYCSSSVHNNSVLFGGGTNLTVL
Kind of assay: ELISA.
Excerpt: as §1, §2

In assay [5] the target is T5, 647.
T5 construct: immunogen of fusion 17; also called PIN647; PIN647 fully human Id protein (HV3-48 / LV2-14)
T5 sequence (VH, as listed by the source, chain 1 of 2): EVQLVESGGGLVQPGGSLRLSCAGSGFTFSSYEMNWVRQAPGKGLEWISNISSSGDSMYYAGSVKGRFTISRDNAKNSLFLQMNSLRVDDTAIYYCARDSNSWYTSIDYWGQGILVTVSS
T5 sequence (VL, as listed by the source, chain 2 of 2): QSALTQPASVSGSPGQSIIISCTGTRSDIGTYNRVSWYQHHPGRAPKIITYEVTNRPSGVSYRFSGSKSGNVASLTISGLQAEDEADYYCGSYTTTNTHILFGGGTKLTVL
In words: ELISA.
Excerpt: as §1, §2

Assay [6] has as its target T6, 662.
T6 construct: also called PIN662; PIN662 fully human Id protein (HV3-48 / LV2-8)
Kind of assay: ELISA.
Excerpt: as §1, §2

The target in assay [7] is T7, PIN574 fully human Id protein (HV4-39 / LV1-40) (human).
T7 construct: patient tumour-derived idiotype immunoglobulin used as antigen; fully human form; also called Immunogen (for 20H5); not shown: human immunoglobulin heavy chain constant region, isotype G3 (HCG3); human lambda light chain constant region (LC)
T7 sequence (VH, as listed by the source, chain 1 of 2): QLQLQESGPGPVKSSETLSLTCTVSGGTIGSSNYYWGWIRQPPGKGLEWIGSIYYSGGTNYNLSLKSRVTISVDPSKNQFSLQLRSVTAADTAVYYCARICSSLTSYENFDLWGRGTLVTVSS
T7 sequence (VL, as listed by the source, chain 2 of 2): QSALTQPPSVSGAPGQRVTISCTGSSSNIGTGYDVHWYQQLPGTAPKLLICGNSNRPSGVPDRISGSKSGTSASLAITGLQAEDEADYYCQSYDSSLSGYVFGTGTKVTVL
Kind of assay: ELISA.
Excerpt: as §1, §2

The target in assay [8] is T8, PIN149 fully human Id protein (HV3-23 / KV4-1) (human).
T8 construct: patient tumour-derived idiotype immunoglobulin used as antigen; recombinant, two identical heavy and two identical light chains; also called Immunogen (for 3C9, 6C9, 10H7, 15E1); not shown: human immunoglobulin heavy chain constant region, isotype G3 (HCG3); human kappa light chain constant region (KC)
T8 sequence (VH, as listed by the source, chain 1 of 2): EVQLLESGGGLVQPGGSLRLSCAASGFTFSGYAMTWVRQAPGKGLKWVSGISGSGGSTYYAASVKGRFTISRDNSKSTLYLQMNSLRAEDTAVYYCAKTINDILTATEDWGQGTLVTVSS
T8 sequence (VL, as listed by the source, chain 2 of 2): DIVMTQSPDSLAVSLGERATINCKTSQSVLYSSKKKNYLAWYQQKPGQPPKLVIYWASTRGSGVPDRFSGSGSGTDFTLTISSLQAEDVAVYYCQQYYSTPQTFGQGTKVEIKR
Kind of assay: SPR (BIACORE 2000), mAb captured on anti-mouse surface, fully human Id protein as analyte. The method, then: (§3) Binding constants were also determined for three of the sequenced clones (3C9, 10H7, and 20H5), as well as for two additional clones (6C9 and 15E1). The association and disassociation rates were measured by surface plasmon resonance using a BIACORE 2000 machine.
(§4) In addition, based on ELISA results, PIN185 was used as a positive control Id protein for 10H7 and 15E1 and a negative control Id protein for 3C9 and 6C9 and PIN149 was used as a non-binding Id protein for 20H5. Each mAb was captured onto an anti-mouse surface and tested for binding to the fully human Id protein. Following the mAb capture phase of the assay for the (@2 ug/ml), the fully human Id proteins were all diluted to a starting concentration of 250 nM and tested in a three fold dilution series. Each concentration was tested in duplicate. The running buffer contained PBS plus 0.005% tween-20 and 0.1 mg/ml BSA as a carrier. Binding data were collected at 25° C. […] The other data sets all fit well to a single site interaction model.

The target of assay [9] is T7, PIN574 fully human Id protein (HV4-39 / …). In words: SPR (BIACORE 2000), mAb captured on anti-mouse surface, fully human Id protein as analyte, 25 C, single site model. The method, then: as §3, §4
(Surface plasmon resonance follows binding to a sensor surface in real time, without labels.)

In assay [10] the target is T8, PIN149 fully human Id protein (HV3-23 / …). In words: ELISA.
Excerpt: as §1, §2

Assay [11] shares this target. Kind of assay: SPR (BIACORE 2000), mAb captured on anti-mouse surface, fully human Id protein as analyte, 25 C, single site model. The method, then:
as §3, §4

Assay [12] concerns the target T3, PIN185 fully human Id protein. The assay is described as above. The method, then: as §3, §4

A word on the Kd: it is the free concentration of one partner at which half of the binding sites on the other are occupied at equilibrium, for simple one-to-one binding. The koff is the first-order rate constant of dissociation. Low readings indicate a long-lived complex, high ones a short-lived complex. By kon is commonly meant the rate constant with which the complex forms. A lower kon goes with slow association.

T1 sequence (VH, as listed by the source, chain 1 of 2): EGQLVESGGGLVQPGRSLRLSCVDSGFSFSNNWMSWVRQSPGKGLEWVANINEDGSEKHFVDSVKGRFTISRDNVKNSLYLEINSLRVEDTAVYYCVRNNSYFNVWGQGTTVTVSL
T1 sequence (VL, as listed by the source, chain 2 of 2): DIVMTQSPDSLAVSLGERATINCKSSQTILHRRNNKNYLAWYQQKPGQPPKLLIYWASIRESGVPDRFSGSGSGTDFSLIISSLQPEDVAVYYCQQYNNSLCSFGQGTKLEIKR
T6 sequence (heavy, as listed by the source): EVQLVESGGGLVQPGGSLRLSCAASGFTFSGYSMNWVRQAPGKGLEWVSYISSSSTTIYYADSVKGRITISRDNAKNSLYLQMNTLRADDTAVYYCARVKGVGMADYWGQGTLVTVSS

B1: mAb clone 12C3 (antibody, V domains shown)
VH: EVKLVESGGGLVQPGGSLSLSCAASGFTYTDYYMNWVRQPPGKALEWLALIRNKANGYTTEYSASLKGRFTISRDNSQSILYLQMNALRAEDSATYYCVRENINYYFDYWGQGTTLTVSS
VL: DIVLTQSPASLAVSLGQRATISCRASESVEYFGASLMQWYQQKSGQPPKLLIRAATNVESGVPARFSGSGSGTDFSLNIHPVEEDDIAMYFCQQSRKVPWTFGGGTKLEIKR
notes: mouse hybridoma mAb from fusions 20/21 (PIN628 V regions as immunogen)
B1: the ELISA score in assay [1], in assay [2] and in assay [3] was 4 each time.

B2: mAb clone 15E8 (antibody, V domains shown)
VH: QVQLQQPGAELVMPGASVKMSCKASGYTFTDYWMHWVKQRPGQGLEWIGTIDTSDSYTNYNQKFKGKATLTVDESSSTAYMQLSSLTSEDSAVYYCVRWKKYGNYFFDYWGQGTTLTVSS
VL: DIVMTQSHKFMSTSVGDRVSITCKASQDVNTAVAWYQQKPGQSPKLLIYWASTRHTGVPDRFTGSGSGTDFSLTISSVQAEDLGLYYCQQCYSTPYAFGGGTKLEIKR
notes: mouse hybridoma mAb from fusion 16 (immunogen unconjugated fully human PIN116)
As to B2, the ELISA score in [4] and in assay [6] was 4 each time. Further, the binding result in assay [5] and in assay [7] was “no binding” throughout.

B3: mAb clone 4H11 (antibody, V domains shown)
VH: EVKLVESGGGLVKPGGSLKLSCAASGFAFSNYDMSWVRQTPEKRLEWVATIRSDDSYTYYPDSVKGRFTISRDNARNTLYLQMSSLRSEDTAFYYCARREGNYAMDYWGQGTSVTVSS
VL: DIQMTQSPASLSVSVGETVTITCRASENIYSYLAWYQQKKGKSPQLLVYAATNLGDGVPTRFSGSGSGTQYSLKINSLQSEDFGSYYCQHFWGNPLTFGAGTKLELKR
notes: mouse hybridoma mAb
B3: the binding result in assay [4] was “no binding”. Besides, the ELISA score in [6] and in assay [7] was 4 each time.

B4: mAb clone 20H5 (antibody, V domains shown)
VH: QVQLKESGPDLVAPSQSLSITCTVSGFSLTSYGVHWVRQPPGKGLEWLVVIWSDGSTTNNSPLKSRLSISKDNSKSQVFLKMNSLQTDDTAMYYCARHWGTTVVDAMDYWGQGTSVTVSS
VL: DIQMTQTTSSLSASLGDRVIISCRASQDIRNYLNWYQQKPDGTVKLLIYYTSQLHSGVPSRFSGSGSGTDYSLTINNLSEQEDIATYFCQQYDTLPWTFGGGTKLEIKR
notes: mouse hybridoma mAb from fusion 10 (immunogen fully human PIN574 Id protein)
For the molecule B4, in assay [8], the binding result was “no binding”. In assay [9], this molecule registered a dissociation constant (Kd) of 1.92 nM, a dissociation rate constant (koff) of 0.000146 s⁻¹ and a kon of 75900 M⁻¹ s⁻¹.

B5: mAb clone 10H7 (antibody, V domains shown)
VH: EVQLVESGGGLVKPGGSLKLSCTASGFTFSSYAMSWVRQSPEKRLEWVAEISSGGIHTYYSDTVTGRFSISRDNAKNSTLYLEMNSLRSEDTAIYYCARETTGTWGQGTLVTVSA
VL: QIVLTQSPAIMSASPGEKVTMTCSVSSSITYMHWFRQKPGTSPKLWIYTTSNLASGVPARFSGSGSGTSYSLTISRMEAEDAATYYCQQRSRYPFTFGSGTKLEIKR
notes: mouse hybridoma mAb from fusion 14 (immunogen PIN149 chimera-KLH)
Turning to B5, the ELISA score in [1], in [2], in assay [10] and in assay [3] was 4 throughout. Besides, the equilibrium dissociation constant (Kd) in [11] was found to be 0.83 nM; in [12], 3 nM. Also, the off-rate (koff) was found to be 3.8e-05 s⁻¹ in assay [11] and 9.9e-05 s⁻¹ in [12]. For the same molecule, the kon in assay [11] worked out at 45400 M⁻¹ s⁻¹; in assay [12], 33200 M⁻¹ s⁻¹.

B6: mAb clone 3C9 (antibody, V domains shown)
VH: EVQLQQSGPELEKPGASVKISCKASGYSFTAYNMNWVKQNNGKSLEWIGNIDPYHGGTNYNQKFKGKATLTVDKSSSTAYMQLKSLTSEDYAVYYCARGGGDWSWFAYWGQGTLVTVSA
VL: DIVMTQSHKFMSTSVGDRVSITCKASQDVNTAVAWYQQKPGQSPKVLIYWASNRHTGVPDRFTGSGSGTDYTLTISSMQAEDLALYYCHQHYSTPWTFGGGTKLEIER
As for B6, in assay [11], binding was characterised by a dissociation constant (Kd) of 1.78 nM, the koff was determined as 0.000134 s⁻¹ and the kon amounted to 74900 M⁻¹ s⁻¹.
